Laboratory results from patent US20140223606, “COMPOSITIONS AND METHODS COMPRISING SEQUENCES HAVING MEGANUCLEASE ACTIVITY” (PIONEER HI BRED INTERNATIONAL INC, published 2014).
Where a chain is given by its changes, count along the chain named.

Key:
Assay in all cases: cell_activity; yeast 37 C; 30 C: 0.5
Details in all cases: tags: NLS, 6xHis
ZM6.22v2(J4) = target: T1, ZM6.22v2(J4) (artificial)
T1 chain: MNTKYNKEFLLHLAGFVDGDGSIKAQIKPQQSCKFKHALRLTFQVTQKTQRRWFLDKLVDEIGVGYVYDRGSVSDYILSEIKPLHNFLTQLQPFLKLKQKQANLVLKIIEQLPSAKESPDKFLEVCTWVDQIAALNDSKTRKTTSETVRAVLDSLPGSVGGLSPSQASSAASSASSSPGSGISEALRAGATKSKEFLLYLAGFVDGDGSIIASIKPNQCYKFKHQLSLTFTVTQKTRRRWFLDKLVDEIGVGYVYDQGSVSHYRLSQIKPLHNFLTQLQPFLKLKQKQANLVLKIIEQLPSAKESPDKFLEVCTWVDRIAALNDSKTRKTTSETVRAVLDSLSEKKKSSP
Protocol: (§1) A 3 mL culture of selective media (MP Biomedical) was inoculated with a single colony of the yeast screening strain and grown at 30° C. overnight. On the following day, a 50 ml YPD culture (MP Biomedical) was started with 2 ml of the overnight culture and grown at 30° C. overnight. On the following day, the cells were harvested by centrifugation at 4000 rpm. The cells were resuspended in 100 ml ice cold water and centrifuged again. The cells were then washed in 1.2 M sorbitol, followed by treatment with 2 ml of 10 mM Tris pH 8.0, 1 mM EDTA, 100 mM Lithium acetate, 10 mM DTT, 0.6M sorbitol for 30 minutes at 30° C. with shaking. The cells were recovered by centrifugation, washed in 40 ml 1.2M sorbitol and finally resuspended in 250 microliters of 1.2M sorbitol. 50 microliter aliquots were transferred to test tubes on ice. Up to 5 microliters of DNA (100-500 nanograms) were added. The suspension was transferred to a 0.2 cm electroporation cuvette, on ice. Electroporation was performed with a pulse charge at 1.5 kV, 200 ohms, 25 microF (pulse time of 5 milliseconds). 1 mL YPD media (MP Biomedical) was added and the cells were allowed to recover at 30° C. for 1-2 hr. The cells were centrifuged, resuspended in 100 uL 1M sorbitol and plated on selective media lacking leucine and containing 2% galactose. The resulting yeast colonies were incubated at various temperatures ranging from 22 to 37 degrees Celsius for 7-10 days. I-CreI and meganucleases derived from it have maximal activity at or above 37 degrees Celsius. Screening was performed at a range of temperatures from 22 to 37 degrees in order to observe increases in activity at lower temperatures which are relevant to certain biological systems (eg. plant cells, plant cell cultures, etc). At that time the red/white sectoring phenotype, indicative of meganuclease activity was observed. Colonies with increased white sectoring over the parental meganuclease (indicating colonies expressing a meganuclease with increased meganuclease activity), also referred to as “hits” and sometimes completely white, were isolated for further analysis.
(§2) A total of 13 ZM6.22v2 variants with increased activity were confirmed in the yeast system (as described in Example 6). Increased activity was observed across a range of temperatures: 28 degrees Celsius, 30 degrees Celsius and 37 degrees Celsius, as shown in Table 16.

ZM6.22v2(J7) = target: T2, ZM6.22v2(J7) (artificial)
T2 chain: T1 chain with D56L, V105A, E124R, V129A, Q131R, R237Q, R318Q
Protocol: as §1, §2

ZM6.22v2(I8) = target: T3, ZM6.22v2(I8) (artificial)
T3 chain: T1 chain with E124R, V129A, R237Q, E311R, R318Q
Protocol: as §1, §2

ZM6.22v2(J3) = target: T4, ZM6.22v2(J3) (artificial)
T4 chain: T1 chain with H12Y, Q50R, D56L, Q131R, E311R, V316A
Protocol: as §1, §2

ZM6.22v2(J5) = target: T5, ZM6.22v2(J5) (artificial)
T5 chain: T1 chain with V105A, E124R, D153L, R237Q, E311R, R318Q
Protocol: as §1, §2

B1: ZM6.22v2 recognition site (dsDNA)
DNA 1: ATTGCTCTCTCACATACTTTTA
DNA 2: TAAAAGTATGTGAGAGAGCAAT
ZM6.22v2(J4)
  activity: 3.5 score 0-4
ZM6.22v2(J7)
  activity: 3 score 0-4
ZM6.22v2(I8)
  activity: 2.5 score 0-4
ZM6.22v2(J3)
  activity: 3 score 0-4
ZM6.22v2(J5)
  activity: 4 score 0-4
